Measured values reported in publication PMC6396373, “The herpesviral antagonist m152 reveals differential activation of STING‐dependent IRF and NF‐κB signaling and STING's dual role during MCMV infection” (The EMBO Journal, 2019).

Molecular target: the molecule itself
Assay: non-reducing SDS-PAGE with immunoblot; iMEF stably expressing ev or m152-V5, stimulated with 10 μg/ml ISD (also with Brefeldin A); lysis in 25 mM Tris-HCl pH 7.6, 150 mM NaCl, 1% IGEPAL CA-630, 1% sodium deoxycholate, 0.1% SDS; anti-STING blot for STING dimers

B1: endogenous murine STING (natural protein)
chain: MPYSNLHPAIPRPRGHRSKYVALIFLVASLMILWVAKDPPNHTLKYLALHLASHELGLLLKNLCCLAEELCHVQSRYQGSYWKAVRACLGCPIHCMAMILLSSYFYFLQNTADIYLSWMFGLLVLYKSLSMLLGLQSLTPAEVSAVCEEKKLNVAHGLAWSYYIGYLRLILPGLQARIRMFNQLHNNMLSGAGSRRLYILFPLDCGVPDNLSVVDPNIRFRDMLPQQNIDRAGIKNRVYSNSVYEILENGQPAGVCILEYATPLQTLFAMSQDAKAGFSREDRLEQAKLFCRTLEEILEDVPESRNNCRLIVYQEPTDGNSFSLSQEVLRHIRQEEKEEVTMNAPMTSVAPPPSVLSQEPRLLISGMDQPLPLRTDLI
notes: stimulator of interferon genes (STING), endogenous in immortalized B6J mouse embryonic fibroblasts; Dimers seen on non-reducing SDS-PAGE after ISD stimulation; also called Endogenous STING; source: endogenous, iMEF lysate
For B1, the “stoichiometry N” value was 2.
